# Biological target: mosPTP-1 including the transmembrane region (91bp-2202bp), Aedes aegypti AAEL013105, on S2 cells (Aedes aegypti)
# Assay: flow cytometry on cells
substance,measurement,value
"mosGCTL-1 (mosquito Galactose-specific binding C-Type Lectin), Aedes aegypti AAEL000563 (natural protein)",percent of mosPTP-1-expressing cells that bound mosGCTL-1,> 40%
